Laboratory results published in article PMC3958441, “Isl1 and Pou4f2 Form a Complex to Regulate Target Genes in Developing Retinal Ganglion Cells” (PLoS ONE, 2014).

T1: Isl1D3 (mouse, UniProt P61372 170-349)
T1 sequence: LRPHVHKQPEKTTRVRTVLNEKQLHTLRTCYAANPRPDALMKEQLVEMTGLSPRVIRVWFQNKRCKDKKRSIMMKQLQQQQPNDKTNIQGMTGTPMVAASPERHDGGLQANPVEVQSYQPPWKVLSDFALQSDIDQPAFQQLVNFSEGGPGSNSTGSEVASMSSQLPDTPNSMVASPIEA

T2: Isl1D4 (mouse, UniProt P61372 146-349)
T2 sequence: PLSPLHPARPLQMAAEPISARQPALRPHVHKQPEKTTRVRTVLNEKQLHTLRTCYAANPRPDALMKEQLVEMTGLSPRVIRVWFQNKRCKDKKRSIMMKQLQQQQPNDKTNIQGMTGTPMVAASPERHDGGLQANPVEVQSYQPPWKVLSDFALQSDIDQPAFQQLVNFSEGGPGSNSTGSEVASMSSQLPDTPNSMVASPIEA

T3: Pou4f2D5 (mouse, UniProt Q63934 125-411)
T3 sequence: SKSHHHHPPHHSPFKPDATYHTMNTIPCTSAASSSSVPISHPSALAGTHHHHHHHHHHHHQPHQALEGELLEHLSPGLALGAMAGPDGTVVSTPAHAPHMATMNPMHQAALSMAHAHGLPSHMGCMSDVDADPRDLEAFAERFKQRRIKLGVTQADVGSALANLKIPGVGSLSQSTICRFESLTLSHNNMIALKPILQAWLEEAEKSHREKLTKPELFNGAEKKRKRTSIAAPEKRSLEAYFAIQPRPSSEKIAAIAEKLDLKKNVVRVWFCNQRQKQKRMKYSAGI

T4: Pou4f2D2 (mouse, UniProt Q63934 1-330)
T4 sequence: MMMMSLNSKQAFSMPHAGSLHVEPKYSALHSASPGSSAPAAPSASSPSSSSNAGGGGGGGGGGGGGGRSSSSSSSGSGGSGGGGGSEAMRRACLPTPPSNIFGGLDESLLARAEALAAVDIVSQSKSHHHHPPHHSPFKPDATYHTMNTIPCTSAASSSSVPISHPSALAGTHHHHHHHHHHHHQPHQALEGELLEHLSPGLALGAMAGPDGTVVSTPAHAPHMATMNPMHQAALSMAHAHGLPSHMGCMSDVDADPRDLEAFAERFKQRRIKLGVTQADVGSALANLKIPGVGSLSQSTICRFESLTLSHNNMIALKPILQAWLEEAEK

T5: Isl1D5 (mouse, UniProt P61372 74-349)
T5 sequence: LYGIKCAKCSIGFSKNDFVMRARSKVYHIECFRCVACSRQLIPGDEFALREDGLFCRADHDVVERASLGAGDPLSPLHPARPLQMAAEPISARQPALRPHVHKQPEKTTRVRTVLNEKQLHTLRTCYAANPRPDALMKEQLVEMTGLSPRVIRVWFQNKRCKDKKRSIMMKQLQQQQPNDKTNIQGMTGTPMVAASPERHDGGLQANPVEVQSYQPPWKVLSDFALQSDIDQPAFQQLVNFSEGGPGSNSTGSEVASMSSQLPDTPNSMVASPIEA

B1: SBRN3(W) (dsDNA)
DNA 1: GCACACGACCCAATGAATTAATAACCGGGCTG
DNA 2: GCAGCCCGGTTATTAATTCATTGGGTCGTGTG
B2: CBRN3(W) (dsDNA)
DNA 1: GATCTCTCCTGCATAATTAATTACCCCCGGAT
DNA 2: GATCCGGGGGTAATTAATTATGCAGGAGAGAT

Tests used:
Experiment in all cases: EMSA; EMSA: 20 mM Tris-HCl pH 7.5, 50 mM NaCl, 10 mM DTT, 1 mM EDTA, 5% glycerol, 200 ng dI/dC, 200 ng each protein in 20 ul, 4 C, 30 min; 8% PAGE, 1x TBE, 4 C
Conditions in all cases: protein: recombinant; tags: His (C-terminal); (radiolabel, Klenow fill-in); 5' overhang 1 nt at both ends before fill-in
Isl1D3 = target: T1, Isl1D3
Isl1D4 = target: T2, Isl1D4
Pou4f2D5 = target: T3, Pou4f2D5
Pou4f2D2 = target: T4, Pou4f2D2
Isl1D5 = target: T5, Isl1D5

Binder | binding result (Isl1D3) | binding result (Isl1D4) | binding result (Pou4f2D5) | binding result (Pou4f2D2) | binding result (Isl1D5)
B1 | binds | binds | binds | no binding | binds
B2 | binds | binds | binds | no binding | binds
